According to US11673916B2, “Neuroprotective peptides and methods of their use” (University of Pittsburgh—Of the Commonwealth System of …, priority 2020, dated 2023):

Target: T1, endogenous Kv2.1 channels (Rattus norvegicus, UniProt P15387)
T1 construct: in order to visualize the distribution of endogenous Kv2.1 channels; endogenous in cells; host or cells: primary rat cortical neurons
T1 sequence (P15387 1-857): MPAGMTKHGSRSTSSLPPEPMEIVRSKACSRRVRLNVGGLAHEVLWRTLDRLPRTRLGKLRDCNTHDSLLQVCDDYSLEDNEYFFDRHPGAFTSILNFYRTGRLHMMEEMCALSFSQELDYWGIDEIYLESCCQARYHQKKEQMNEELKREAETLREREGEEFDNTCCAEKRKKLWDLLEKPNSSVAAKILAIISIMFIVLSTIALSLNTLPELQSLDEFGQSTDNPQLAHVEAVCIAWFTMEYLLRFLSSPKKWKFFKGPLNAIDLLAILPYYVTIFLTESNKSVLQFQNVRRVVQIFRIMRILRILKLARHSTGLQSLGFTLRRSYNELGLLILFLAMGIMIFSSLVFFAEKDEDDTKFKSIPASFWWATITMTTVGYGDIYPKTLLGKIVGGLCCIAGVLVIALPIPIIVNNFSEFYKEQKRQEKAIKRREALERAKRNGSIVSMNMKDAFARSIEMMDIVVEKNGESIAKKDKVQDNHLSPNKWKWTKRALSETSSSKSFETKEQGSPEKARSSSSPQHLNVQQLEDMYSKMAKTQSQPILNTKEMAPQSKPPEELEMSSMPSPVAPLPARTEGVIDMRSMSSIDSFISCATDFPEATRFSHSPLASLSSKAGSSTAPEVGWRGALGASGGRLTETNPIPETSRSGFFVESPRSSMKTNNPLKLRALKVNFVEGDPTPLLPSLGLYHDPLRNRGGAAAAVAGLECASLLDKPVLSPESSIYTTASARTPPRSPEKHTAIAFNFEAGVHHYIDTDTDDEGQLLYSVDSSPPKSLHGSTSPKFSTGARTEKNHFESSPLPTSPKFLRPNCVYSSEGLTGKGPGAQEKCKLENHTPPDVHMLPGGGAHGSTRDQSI
Assay: Immunocytochemistry of endogenous Kv2.1 channel clusters in fixed cortical neurons
Format: cell-based
Settings: 10 μM, three-hour treatment, mean±SEM (FIG. 10B)
Procedure: The in vitro Kv2.1 immunofluorescence experiment (FIG. 10) was carried out in DIV 21-26 primary rat neuronal cultures, as described above. Each coverslip was treated with either TAT-DP-2 or TAT-Sc-2 in its individual well to reach a final concentration of […] 3 hours, coverslips were transferred to PBS and immediately fixed with 4% paraformaldehyde/4% sucrose for 15 minutes. Coverslips were rinsed with PBS 3 times and then permeabilized with 0.25% triton-X-100 for 15 minutes. Cells were rinsed with PBS 3 times and then blocked with 2% BSA/10% normal goat serum for 1 hour at room temperature. […]
To analyze Kv2.1 distribution in live primary cortical neurons, cells were transfected with both a tdTomato construct and a GFP-tagged Kv2.1 construct (O'Connell, et al., J Neurosci. 26: 9609-9618, 2006) and imaged on a Nikon A1+ confocal microscope (Nikon, Tokyo, Japan). […] For live images of transfected neurons, object count parameters were customized to define a Kv2.1 cluster as an area of high intensity GFP fluorescence (compared to background), measuring 0.05 μm^2 or larger (Schulien et al., J Physiol (Lond). 594: 2647-2659, 2016). Kv2.1 cluster density was calculated by normalizing the number of Kv2.1 clusters counted to the somatic area of each neuron (#Kv2.1 clusters/μm^2). […]

YGRKKRRQRRRDFSSIST [TAT-Sc-2, TAT-linked scramble control peptide]
mean Kv2.1 surface cluster density (endogenous channels): 0.056±0.005 #Kv2.1 clusters/μm^2 of neuronal soma

YGRKKRRQRRRSIDSFTS [TAT-DP-2, TAT-linked declustering peptide 2]
mean Kv2.1 surface cluster density (endogenous channels): 0.030±0.003 #Kv2.1 clusters/μm^2 of neuronal soma
